The source of these data is PMC7083883, “The cryo-EM structure of the SNX–BAR Mvp1 tetramer” (Nature Communications, 2020).

Numbering of substitutions follows the chain as printed. Names and notes keep the numbering of the source.

Data set [1] concerns the target Mvp1 with an engineered PreScission site after residue 99, after cleavage (N-terminal sequence removed) (S. cerevisiae) (UniProt P40959). The experiment in a line: SEC-MALS; Superdex 200 10/300 GL, 20 mM TRIS/Cl pH 7.4, 250 mM NaCl unless stated (full-length Mvp1 also at 50 and 150 mM NaCl), 1.93 mM beta-mercaptoethanol; 500 ul of 20-21.2 uM protein injected (14 uM for Mvp1 Δ2-78); 0.3 ml/min. (SEC sorts molecules by how far they enter the pores of the column.)

Another data set deals with T1, Mvp1 (Saccharomyces cerevisiae, UniProt P40959).
T1 construct: full-length, codons 1-511; E. coli; N-terminal His6-thrombin fusion or C-terminal MBP fusion cut off with PreScission; tetramer
T1 sequence (P40959 1-511): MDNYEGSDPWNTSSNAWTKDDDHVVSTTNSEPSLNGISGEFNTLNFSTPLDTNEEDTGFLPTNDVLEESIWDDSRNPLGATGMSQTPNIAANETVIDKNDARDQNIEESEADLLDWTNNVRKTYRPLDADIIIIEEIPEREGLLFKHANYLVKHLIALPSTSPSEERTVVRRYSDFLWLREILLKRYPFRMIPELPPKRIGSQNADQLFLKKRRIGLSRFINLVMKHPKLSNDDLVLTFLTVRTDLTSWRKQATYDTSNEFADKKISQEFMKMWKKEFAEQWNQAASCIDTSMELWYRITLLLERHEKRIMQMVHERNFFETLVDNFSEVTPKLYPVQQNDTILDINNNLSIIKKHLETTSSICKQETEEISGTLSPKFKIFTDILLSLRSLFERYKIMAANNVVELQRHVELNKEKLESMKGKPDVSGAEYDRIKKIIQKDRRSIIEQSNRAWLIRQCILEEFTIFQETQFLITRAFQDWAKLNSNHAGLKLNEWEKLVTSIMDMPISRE
The experiment in a line: liposome sedimentation, SDS-PAGE. The class given is binding. To be noted: 5% PI3P in 95% DOPS liposomes (100 nm, 0.1 mg/ml); 1.2 µM protein; 20 mM Tris pH 7.5, 250 mM NaCl; 21 °C; DOPS-only liposomes as control.

Data set [2] deals with the molecule itself. Put plainly: SEC-MALS; Superdex 200 10/300 GL, 20 mM TRIS/Cl pH 7.4, 250 mM NaCl unless stated (full-length Mvp1 also at 50 and 150 mM NaCl), 1.93 mM beta-mercaptoethanol; 500 ul of 20-21.2 uM protein injected (14 uM for Mvp1 Δ2-78); 0.3 ml/min.
Data set [3] concerns the molecule itself. The experiment in a line: cryo-EM structure; 2d and 3d classification of single particles of Mvp1 Mut1, ~5 uM protein, intermediate resolution (~7.7-8.2 Å).

Take “Mvp1 with an engineered PreScission site after residue 99, after cleavage (N-terminal sequence removed) (from UniProt P40959 100-511) (domain or fragment)”: the stoichiometry N (in general, a count of units in the complex or per binding partner) in data set [1] amounted to 2.
Regarding `CCCCCCCC/C=C\CCCCCCCC(=O)OC[C@H](COP(=O)(O)O[C@@H]1[C@H](O)[C@H](OP(=O)(O)O)[C@@H](O)[C@H](O)[C@H]1O)OC(=O)CCCCCCC/C=C\CCCCCCCC` [PI3P], at Mvp1, the “liposome sedimentation, SDS-PAGE” value is “purified Mvp1, like SNX8 and several other SNX–BARs, bound to liposomes containing PI3P”.

B1: Full-length Mvp1 (codons 1-511) (natural protein, S. cerevisiae, UniProt P40959 1-511, looked up)
chain: T1 sequence (P40959 1-511)
notes: Mvp1, S. cerevisiae sorting nexin with PX and BAR domains, codons 1-511, amplified from genomic DNA of W303A/alpha diploids; Two purification strategies: N-terminal His6 fusion with thrombin site (no cleavage described) or C-terminal MBP fusion cleaved with PreScission; also called wild type; SNX-BAR Mvp1; source: E. coli BL21-Codon Plus(DE3)-RIPL, purified (Ni-IDA or amylose resin, anion …)
For the molecule B1, in data set [2], the “stoichiometry N” value stood at 4.

B2: Mvp1 198KRI→AAA (natural protein, S. cerevisiae, UniProt P40959 1-511, looked up)
chain: T1 sequence (P40959 1-511) with K198A, R199A, I200A
notes: Mvp1, S. cerevisiae, codons 1-511 with residues 198-200 KRI changed to AAA in the PX PPII loop; also called Mut1; Mvp1 Mut1; source: E. coli BL21-Codon Plus(DE3)-RIPL, purified; not shown: His6 (pET-15b construct); MBP (pMW-variant construct; alternative to the His6 construct), C-terminal, cleaved
Consider B2, for which the “stoichiometry N” value in data set [3] came to 2.

B3: Mvp1 Δ2-78 (domain or fragment, S. cerevisiae, UniProt P40959 1-511, looked up)
chain: MGATGMSQTPNIAANETVIDKNDARDQNIEESEADLLDWTNNVRKTYRPLDADIIIIEEIPEREGLLFKHANYLVKHLIALPSTSPSEERTVVRRYSDFLWLREILLKRYPFRMIPELPPKRIGSQNADQLFLKKRRIGLSRFINLVMKHPKLSNDDLVLTFLTVRTDLTSWRKQATYDTSNEFADKKISQEFMKMWKKEFAEQWNQAASCIDTSMELWYRITLLLERHEKRIMQMVHERNFFETLVDNFSEVTPKLYPVQQNDTILDINNNLSIIKKHLETTSSICKQETEEISGTLSPKFKIFTDILLSLRSLFERYKIMAANNVVELQRHVELNKEKLESMKGKPDVSGAEYDRIKKIIQKDRRSIIEQSNRAWLIRQCILEEFTIFQETQFLITRAFQDWAKLNSNHAGLKLNEWEKLVTSIMDMPISRE
notes: source: E. coli BL21-Codon Plus(DE3)-RIPL, purified; not shown: His6 (pET-15b construct); MBP (pMW-variant construct; alternative to the His6 construct), C-terminal, cleaved
Take B3: the “stoichiometry N” value in data set [2] amounted to 2.

B4: Mvp1 Δ2-100 (domain or fragment, S. cerevisiae, UniProt P40959 1-511, looked up)
chain: MARDQNIEESEADLLDWTNNVRKTYRPLDADIIIIEEIPEREGLLFKHANYLVKHLIALPSTSPSEERTVVRRYSDFLWLREILLKRYPFRMIPELPPKRIGSQNADQLFLKKRRIGLSRFINLVMKHPKLSNDDLVLTFLTVRTDLTSWRKQATYDTSNEFADKKISQEFMKMWKKEFAEQWNQAASCIDTSMELWYRITLLLERHEKRIMQMVHERNFFETLVDNFSEVTPKLYPVQQNDTILDINNNLSIIKKHLETTSSICKQETEEISGTLSPKFKIFTDILLSLRSLFERYKIMAANNVVELQRHVELNKEKLESMKGKPDVSGAEYDRIKKIIQKDRRSIIEQSNRAWLIRQCILEEFTIFQETQFLITRAFQDWAKLNSNHAGLKLNEWEKLVTSIMDMPISRE
notes: Mvp1, S. cerevisiae, codons 1-511 lacking residues 2-100; The purification told for this construct is that of the C-terminal MBP fusion, cleaved with PreScission; residues of the cleavage site probably remain at the C-terminus (surmised); also called Mvp1 lacking its N-terminus; source: E. coli BL21-Codon Plus(DE3)-RIPL, purified (amylose resin, anion exchange, SEC, PreScission cleavage, Superdex …)
Turning to B4, the “stoichiometry N” value in data set [2] stood at 2.
